This is an account of results in US20100015637A1 (AbbVie / Abbott, published 2010).

The target of experiment [1] is CHO human PlGF-1 comprising amino acids 1-137 (human PlGF-1-His (1-131), CHO 6305) (human) (UniProt P49763). The experiment can be described thus: … sandwich, capture MAb264, detection pAb264; antigen 60 pg/mL.
Experiment [2] has as its target CHO human PlGF-1 fragment (comprising amino acids 17-131; ATCC PTA-8540) (human) (UniProt P49763). Described as above.
Experiment [3] addresses human PlGF-1 comprising amino acids 1-137 produced in human embryonic kidney cells (human) (UniProt P49763). The experiment is described as above.
In experiment [4] the target is recombinant human PlGF-1 (comprising amino acids 1-131) expressed in E. coli (R&D Systems) (human) (UniProt P49763). Described as above.
Experiment [5] addresses human PlGF-1 fragment (comprising amino acids 17-131) produced in human embryonic kidney cells (human) (UniProt P49763). The experiment is described as above.
Experiment [6] deals with CHO human PlGF-1 comprising amino acids 1-137 (human PlGF-1-His (1-131), CHO 6305) (human) (UniProt P49763). The experiment can be described thus: … sandwich, capture MAb264, detection pAb264; antigen 1500 pg/mL.
Experiment [7] concerns the target CHO human PlGF-1 fragment (comprising amino acids 17-131; ATCC PTA-8540) (human) (UniProt P49763). Described as above.
Experiment [8] concerns the target human PlGF-1 comprising amino acids 1-137 produced in human embryonic kidney cells (human) (UniProt P49763). The experiment is described as above.
Experiment [9] addresses recombinant human PlGF-1 (comprising amino acids 1-131) expressed in E. coli (R&D Systems) (human) (UniProt P49763). The experiment is described as above.
Experiment [10] addresses human PlGF-1 fragment (comprising amino acids 17-131) produced in human embryonic kidney cells (human) (UniProt P49763). The description is as above.
In experiment [11] the target is CHO human PlGF-1 comprising amino acids 1-137 (human PlGF-1-His (1-131), CHO 6305) (human) (UniProt P49763). The experiment can be described thus: … sandwich, capture MAb264, detection pAb264; antigen 250 pg/mL.
Experiment [12] deals with CHO human PlGF-1 fragment (comprising amino acids 17-131; ATCC PTA-8540) (human) (UniProt P49763). Described as above.
Experiment [13] deals with human PlGF-1 comprising amino acids 1-137 produced in human embryonic kidney cells (human) (UniProt P49763). The experiment is described as above.
Experiment [14] addresses recombinant human PlGF-1 (comprising amino acids 1-131) expressed in E. coli (R&D Systems) (human) (UniProt P49763). The experiment is described as above.
For experiment [15], the target named is human PlGF-1 fragment (comprising amino acids 17-131) produced in human embryonic kidney cells (human) (UniProt P49763). The experiment is described as above.
The target in experiment [16] is CHO human PlGF-1 comprising amino acids 1-137 (human PlGF-1-His (1-131), CHO 6305) (human) (UniProt P49763). The experiment can be described thus: … sandwich, capture MAb264, detection pAb264; antigen 750 pg/mL.
Experiment [17] addresses CHO human PlGF-1 fragment (comprising amino acids 17-131; ATCC PTA-8540) (human) (UniProt P49763). The description is as above.
Experiment [18] deals with human PlGF-1 comprising amino acids 1-137 produced in human embryonic kidney cells (human) (UniProt P49763). The description is as above.
The target of experiment [19] is recombinant human PlGF-1 (comprising amino acids 1-131) expressed in E. coli (R&D Systems) (human) (UniProt P49763). Described as above.
Experiment [20] has as its target human PlGF-1 fragment (comprising amino acids 17-131) produced in human embryonic kidney cells (human) (UniProt P49763). Described as above.
Experiment [21] addresses CHO human PlGF-1 comprising amino acids 1-137 (human PlGF-1-His (1-131), CHO 6305) (human) (UniProt P49763). Put plainly: … sandwich, capture MAb264, detection pAb264; antigen 0 pg/mL (blank).
In experiment [22] the target is CHO human PlGF-1 fragment (comprising amino acids 17-131; ATCC PTA-8540) (human) (UniProt P49763). The experiment is described as above.
Experiment [23] concerns the target human PlGF-1 comprising amino acids 1-137 produced in human embryonic kidney cells (human) (UniProt P49763). The description is as above.
Experiment [24] addresses recombinant human PlGF-1 (comprising amino acids 1-131) expressed in E. coli (R&D Systems) (human) (UniProt P49763). Described as above.
Experiment [25] concerns the target human PlGF-1 fragment (comprising amino acids 17-131) produced in human embryonic kidney cells (human) (UniProt P49763). Described as above.
Experiment [26] deals with CHO human PlGF-1 comprising amino acids 1-137 (human PlGF-1-His (1-131), CHO 6305) (human) (UniProt P49763). The experiment can be described thus: … sandwich, capture MAb264, detection pAb264; antigen 15 pg/mL.
Experiment [27] concerns the target CHO human PlGF-1 fragment (comprising amino acids 17-131; ATCC PTA-8540) (human) (UniProt P49763). The experiment is described as above.
Experiment [28] deals with human PlGF-1 comprising amino acids 1-137 produced in human embryonic kidney cells (human) (UniProt P49763). The experiment is described as above.
In experiment [29] the target is recombinant human PlGF-1 (comprising amino acids 1-131) expressed in E. coli (R&D Systems) (human) (UniProt P49763). The experiment is described as above.
Experiment [30] has as its target human PlGF-1 fragment (comprising amino acids 17-131) produced in human embryonic kidney cells (human) (UniProt P49763). The experiment is described as above.
The target in experiment [31] is T1, CHO human PlGF-1 comprising amino acids 1-137 (human PlGF-1-His (1-131), CHO 6305) (human, UniProt P49763 19-221, N-glycans at N21 (completely glycosylated) and N89 (partially glycosylated)).
T1 construct: Mature human PlGF-1 with 6xHis tag (137 amino acids); also called CHO (1-137)
T1 sequence: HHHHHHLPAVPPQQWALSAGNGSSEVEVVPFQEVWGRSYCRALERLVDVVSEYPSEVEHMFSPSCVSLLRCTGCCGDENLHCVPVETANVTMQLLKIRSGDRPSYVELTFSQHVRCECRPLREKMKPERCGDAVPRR
Put plainly: sandwich chemiluminescent EIA, 1-255-713 coated, acridinium 2-826-335 Fab'2 detection. As for the experimental part:
After the capture reagent had been coated on the solid phase, it was removed and any unoccupied binding sites remaining on the plates were blocked using a 2% Fish Gel solution in PBS. The plates were washed and log 2 serial dilutions of recombinant antigen (rAg) lots, starting at 10,000 pg/mL in research phase […]® Human PlGF-1 calibrator diluent (which comprises a buffer containing MES, other salt, a protein blocker and an antimicrobial; Abbott Laboratories, Abbott Park, Ill.), were added to the plate for a one-hour incubation. Purified human PlGF-1 rAg (R&D Systems Minneapolis, Minn.) that was produced in E. coli was used as a positive control and purified NGAL) rAg was used as a negative control in this assay. […] Luminescence counts per second (LCPS) were measured on a Microbeta Jet instrument (Perkin Elmer, Waltham Mass.). The plate was loaded in the instrument where 100 μl of Architect Pre-trigger Solution (Abbott Laboratories, Abbott Park, Ill.) is added to each well, followed by 100 ul of Architect Trigger Solution is added before flash chemiluminescence is read and recorded. A calibration curve was generated with each rAg and recorded in the following graph.

Turning to “monoclonal antibody 264 (mouse anti-human PlGF-1, Clone 37203, R&D Systems Catalog Number MAB264)”, the RLU in experiment [1] amounted to 13800 RLU; in experiment [2], 14800 RLU; in experiment [3], 31300 RLU; in experiment [4] it was 55000 RLU; in experiment [5], 23500 RLU; in experiment [6], 201000 RLU. In addition, the RLU turned out to be 223000 RLU in experiment [7]; 507000 RLU in [8]; 937000 RLU in [9]; 403000 RLU in experiment [10]; 38900 RLU in experiment [11]; 46000 RLU in experiment [12]. The RLU in experiment [13] is 109000 RLU; in [14], 196000 RLU; in experiment [15], 77900 RLU; in experiment [16], 106000 RLU; in experiment [17] it was 120000 RLU; in [18], 277000 RLU. Besides, the RLU in experiment [19] is 352000 RLU; in experiment [20], 206000 RLU; in experiment [21] it was 4650 RLU; in experiment [22], 4680 RLU; in experiment [23], 4750 RLU; in experiment [24], 5110 RLU. The RLU in [25] came to 4880 RLU; in experiment [26], 6370 RLU; in experiment [27], 6870 RLU; in experiment [28], 10400 RLU; in experiment [29], 15600 RLU; in experiment [30], 8590 RLU.

B1: acridinium labeled Fab'2 fragment of human PlGF-1 antibody 2-826-335 (other)
VH: QVQLKQSGPGLVQPSQSLSITCTVSGFSLTTYGIHWVRQSPGKGLEWLGVMWSGGDTDYDAAFISRLSISKDNSKSQVFFKMNSLQANDTGIYYCARYRFYGMDYWGQGTSVTVSS
VL: AIQMTQSSSSFSVSLGDRVTITCKASEDIYNRFAWYQQKPGNAPRLLISGAASLEAGVPSRFSGSGSGQDYTLSITSLQTEDVATYYCQQYWSTPWTFGGGTKLEIKR
modifications: acridinium labeled
Consider B1, for which, in experiment [31], the binding result is listed as “binds”.
